Source: US20130022546A1 (UNIVERSITY OF TENNESSEE RESEARCH FOUNDATION, published 2013)
Ends that are not written are not given here.

Columns and labels:
Test in all cases: biotinylated peptide overlaid on formalin-fixed amyloid-containing tissue sections; list of amyloids that p31 'specifically binds significantly'
[1] = target: Aβ amyloid (Alzheimer's disease) (human, UniProt P05067 672-713)
Protocol: (§1) The peptides were overlaid onto formalin-fixed 6 μm-thick amyloid-containing tissue sections, incubated overnight and then the distribution visualized using standard immunohistochemical techniques.

[2] = target: ATTR amyloid (transthyretin amyloidosis) (human, UniProt P02766 21-147)
Protocol: as §1

[3] = target: T1, AA amyloid (human) (human, UniProt P0DJI8 19-94, limits assumed)
T1 construct: also called serum amyloid protein A amyloidosis
T1 sequence (looked up): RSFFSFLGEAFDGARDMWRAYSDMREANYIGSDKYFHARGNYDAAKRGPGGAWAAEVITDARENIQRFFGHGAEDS
Protocol: as §1

[4] = target: T2, AA amyloid (canine) (canine, UniProt P19708 19-111)
T2 sequence (looked up): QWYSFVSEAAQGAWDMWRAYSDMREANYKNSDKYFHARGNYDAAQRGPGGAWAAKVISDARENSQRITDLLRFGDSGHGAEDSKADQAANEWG
Protocol: as §1

[5] = target: T3, ALECT2 amyloid (Lect2 amyloidosis) (human, UniProt O14960 19-151, limits assumed)
T3 construct: also called ALEC2
T3 sequence (looked up): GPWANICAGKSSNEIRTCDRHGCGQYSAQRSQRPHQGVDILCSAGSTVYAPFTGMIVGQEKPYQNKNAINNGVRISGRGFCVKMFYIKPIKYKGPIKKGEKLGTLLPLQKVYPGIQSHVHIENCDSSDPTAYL
Protocol: as §1

Measured: binding result

B1: peptide p31 (peptide)
peptide: CGGYSKAQKAQAKQAKQAQKAQKAQAKQAKQ
modifications: also: label differs by assay: biotinyl-maleimide on Cys1 (tissue overlays), 125I on Tyr or 99mTc (imaging)
notes: Synthetic peptide with an N-terminal CGGY leader
binds: all assays above
